Measured values reported in PMC6769022, “Identification of an adhesive interface for the non-clustered δ1 protocadherin-1 involved in respiratory diseases” (Communications Biology, 2019).
Numbering of substitutions follows the chain as printed. Names and notes keep the numbering of the source.

How the values were obtained:
[1] = biological target: the molecule itself; assay: bead aggregation assay; Fc fusions from concentrated HEK293T medium bound to protein G Dynabeads, washed; binding buffer 50 mM TrisHCl pH 7.5, 100 mM NaCl, 10 mM KCl, 0.2% BSA with 2 mM CaCl2; 60 min without motion, then 1 and 2 min rocking; aggregates imaged
[2] = biological target: the molecule itself; assay: crystal structure; vapor diffusion at 4 °C; one molecule in the asymmetric unit, antiparallel dimers formed by crystal symmetry
[3] = biological target: the molecule itself; assay: AUC; sedimentation velocity, 50,000 r.p.m., 20 °C, 20 mM Tris-HCl pH 8.0, 150 mM KCl, 50 mM NaCl, 2 mM CaCl2; dimer to monomers

B1: PCDH1 EC1-7Fc (Fc fusion, human, UniProt Q08174 58-852, looked up)
chain: TRVVYKVPEEQPPNTLIGSLAADYGFPDVGHLYKLEVGAPYLRVDGKTGDIFTTETSIDREGLRECQNQLPGDPCILEFEVSITDLVQNGSPRLLEGQIEVQDINDNTPNFASPVITLAIPENTNIGSLFPIPLASDRDAGPNGVASYELQAGPEAQELFGLQVAEDQEEKQPQLIVMGNLDRERWDSYDLTIKVQDGGSPPRASSALLRVTVLDTNDNAPKFERPSYEAELSENSPIGHSVIQVKANDSDQGANAEIEYTFHQAPEVVRRLLRLDRNTGLITVQGPVDREDLSTLRFSVLAKDRGTNPKSARAQVVVTVKDMNDNAPTIEIRGIGLVTHQDGMANISEDVAEETAVALVQVSDRDEGENAAVTCVVAGDVPFQLRQASETGSDSKKKYFLQTTTPLDYEKVKDYTIEIVAVDSGNPPLSSTNSLKVQVVDVNDNAPVFTQSVTEVAFPENNKPGEVIAEITASDADSGSNAELVYSLEPEPAAKGLFTISPETGEIQVKTSLDREQRESYELKVVAADRGSPSLQGTATVLVNVLDCNDNDPKFMLSGYNFSVMENMPALSPVGMVTVIDGDKGENAQVQLSVEQDNGDFVIQNGTGTILSSLSFDREQQSTYTFQLKAVDGGVPPRSAYVGVTINVLDENDNAPYITAPSNTSHKLLTPQTRLGETVSQVAAEDFDSGVNAELIYSIAGGNPYGLFQIGSHSGAITLEKEIERRHHGLHRLVVKVSDRGKPPRYGTALVHLYVNETLANRTLLETLLGHSLDTPLDIDIAGDPEYERSKQRGN
notes: Protocadherin-1 (PCDH1), human, repeats EC1 to EC7 (full-length extracellular domain); native signal peptide in the construct; Vector CMV:N1-Fc; Fc detected with anti-human IgG; also called human Protocadherin-1 full-length extracellular domain, Fc-tagged; wild-type PCDH1 EC1-7Fc; source: HEK293T, transfected, secreted into serum-free medium, captured on protein G Dynabeads
binding result [1]: binds

B2: PCDH1 EC1-7Fc V115R (Fc fusion, human, UniProt Q08174 58-852, looked up)
chain: B1 chain with V115R
notes: Protocadherin-1 (PCDH1), human, repeats EC1 to EC7; native signal peptide in the construct; Vector CMV:N1-Fc; source: HEK293T, transfected, secreted into serum-free medium, captured on protein G Dynabeads
binding result [1]: binds

B3: PCDH1 EC1-7Fc C375S C548S (Fc fusion, human, UniProt Q08174 58-852, looked up)
chain: B1 chain with C375S, C548S
notes: as for B2
binding result [1]: binds

B4: Hs PCDH1 EC1-4bc (domain or fragment, human)
chain: TRVVYKVPEEQPPNTLIGSLAADYGFPDVGHLYKLEVGAPYLRVDGKTGDIFTTETSIDREGLRECQNQLPGDPCILEFEVSITDLVQNGSPRLLEGQIEVQDINDNTPNFASPVITLAIPENTNIGSLFPIPLASDRDAGPNGVASYELQAGPEAQELFGLQVAEDQEEKQPQLIVMGNLDRERWDSYDLTIKVQDGGSPPRASSALLRVTVLDTNDNAPKFERPSYEAELSENSPIGHSVIQVKANDSDQGANAEIEYTFHQAPEVVRRLLRLDRNTGLITVQGPVDREDLSTLRFSVLAKDRGTNPKSARAQVVVTVKDMNDNAPTIEIRGIGLVTHQDGMANISEDVAEETAVALVQVSDRDEGENAAVTCVVAGDVPFQLRQASETGSDSKKKYFLQTTTPLDYEKVKDYTIEIVAVDSGNPPLSSTNSLKVQVVDVNDNA
notes: Protocadherin-1 (PCDH1), human, repeats EC1 to EC4, without signal peptide; also called PCDH1 EC1-4 (bacterially produced, wild type)
binding result [2]: binds

B5: PCDH1 EC1-4Fc (Fc fusion, human)
chain: B4 chain
notes: Protocadherin-1 (PCDH1), human, repeats EC1 to EC4; native signal peptide in the construct; Vector CMV:N1-Fc; PDB 6MGA holds the His-tagged mammalian EC1-4 fragment; source: HEK293T, transfected, secreted into serum-free medium, captured on protein G Dynabeads
binding result [1]: binds

B6: Hs PCDH1 EC1-4mc (domain or fragment, human)
chain: B4 chain
modifications: sugars observed at N248 (N-linked) and S430 (O-linked) in the structure
notes: Protocadherin-1 (PCDH1), human, repeats EC1 to EC4; Vector CMV:N1-His; also called PCDH1 EC1-4His
binding result [2]: binds

B7: PCDH1 EC1-4 C375S (domain or fragment, human)
chain: B4 chain with C375S
notes: Protocadherin-1 (PCDH1), human, repeats EC1 to EC4, without signal peptide; Parent (wild-type bacterial EC1-4) is in PDB 6BX7; also called bacterially produced PCDH1 EC1-4 C375S
Kd [3]: < 5 µM
stoichiometry N [3]: 2

B8: PCDH1 EC1-5 C375S C548S (domain or fragment)
chain: MTRVVYKVPEEQPPNTLIGSLAADYGFPDVGHLYKLEVGAPYLRVDGKTGDIFTTETSIDREGLRECQNQLPGDPCILEFEVSITDLVQNGSPRLLEGQIEVQDINDNTPNFASPVITLAIPENTNIGSLFPIPLASDRDAGPNGVASYELQAGPEAQELFGLQVAEDQEEKQPQLIVMGNLDRERWDSYDLTIKVQDGGSPPRASSALLRVTVLDTNDNAPKFERPSYEAELSENSPIGHSVIQVKANDSDQGANAEIEYTFHQAPEVVRRLLRLDRNTGLITVQGPVDREDLSTLRFSVLAKDRGTNPKSARAQVVVTVKDMNDNAPTIEIRGIGLVTHQDGMANISEDVAEETAVALVQVSDRDEGENAAVTSVVAGDVPFQLRQASETGSDSKKKYFLQTTTPLDYEKVKDYTIEIVAVDSGNPPLSSTNSLKVQVVDVNDNAPVFTQSVTEVAFPENNKPGEVIAEITASDADSGSNAELVYSLEPEPAAKGLFTISPETGEIQVKTSLDREQRESYELKVVAADRGSPSLQGTATVLVNVLDSNDNDLEHHHHHH
Kd [3]: < 5 µM
stoichiometry N [3]: 2

B9: PCDH1 EC1-5 C375S C548S V115R (domain or fragment)
chain: B8 chain with V116R
stoichiometry N [3]: 2
